Assay [1] deals with T1, CD137 on the surface of cells (activated human T cells; engineered CHO cells) (human, UniProt Q07011 24-255).
T1 construct: whole, on cells; also called human CD137; cell surface expressed CD137
Put plainly: flow cytometry on activated pan T cells gated CD8, anti-hFc APC MFI.

Assay [2] concerns the target T2, HER2/neu on the surface of target cells (N87, JIMT-1, MCF-7, MDA-MB231) (UniProt P04626 23-1255, limits assumed).
T2 construct: whole, on cells
The assay can be described thus: flow cytometry on JIMT-1 cells, anti-hFc APC MFI. Summed up:
(§1)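 N87 or JIMT-1 cells were incubated 45 min at RT with serially diluted (5- or 10-fold) bispecific diabodies. Bound molecules were detected with APC-labelled anti-human Fc (30 min, RT), and APC MFI was read by flow cytometry.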

Assay [3] concerns the target T2, HER2/neu on the surface of target cells …. Put plainly: flow cytometry on N87 gastric cancer cells, anti-hFc APC MFI.
For assay [4], the target named is T1, CD137 on the surface of cells …. Put plainly: flow cytometry on CD137-expressing CHO cells (CHO/137), anti-hFc APC MFI.
Assay [5] concerns the target T3, extracellular portion of human HER2 fused to a histidine-containing peptide (human, UniProt P04626 23-652).
T3 construct: extracellular domain; also called huHER2; Human HER2/neu
Put plainly: SPR (BIACORE), essentially as for Table 8. An excerpt:
The humanized variants were selected to have improved binding affinity as compared to the parental murine antibody and as described may be further engineered to eliminate sequence liabilities (e.g., isomerization, deamidation sites) as described above. The binding affinity of several combinations of humanized VH and VL domains was examined by BIACORE®. Thus, an extracellular portion of human HER2 fused to a histidine-containing peptide (“huHER2”) was passed over a surface coated with immobilized antibody. Briefly, each test molecule was captured onto an F(ab)₂ goat-anti-human Fc-coated surface and then incubated in the presence of different concentrations (6.25 nM-50 nM) of huHER2. The kinetics of binding were determined via BIACORE® analysis binding (normalized 1:1 Langmuir binding model).
In a separate study, the binding kinetics of the CD137×TA bispecific diabody, DART-B (described above), were determined for binding to human HER2 and cynomolgus monkey HER2, essentially as described above.

Assay [6] has as its target T2, HER2/neu on the surface of target cells …. Put plainly: flow cytometry on N87 cells, anti-hFc APC MFI. Summed up: as §1
Assay [7] deals with T1, CD137 on the surface of cells …. The assay can be described thus: flow cytometry on activated CD8+ T cells (CD8 FITC), anti-hFc APC MFI.
Assay [8] shares this target. The assay can be described thus: flow cytometry on activated pan T cells gated CD8+ (donor D43867), anti-hFc APC MFI. The procedure: (§2) Three antibodies were selected for further study. For such evaluations, purified pan T-cells (see above) were stimulated with anti-CD3/CD28 beads (cells:beads=1:1) for 72 hours in the presence of IL-2 (100 U/mL). 100 μL of activated T cells (1.0×10⁶ cells/mL) and 100 μL of serially diluted (5- or 10-fold dilutions) test article (antibody or bispecific diabody) was added to each well of microtiter assay plate(s), mixed and incubated at RT for 45 min. The cells were washed with FACS Buffer and secondary antibody (anti-human-Fc region-APC) was then added to each well; mixed and incubated at RT for 30 min. Cells were then washed FACS Buffer and T cell surface marker antibodies (anti-CD4 labeled with V510, and anti-CD8 labeled with FITC) were then added to each well; mixed and incubated at RT for 30 min. Cells were washed and resuspended in 100 μL FACS Buffer and analyzed by flow cytometry (BD LSR Fortessa or FACSCanto 11) for cell event collection. Data analysis were performed via FloJo v10.

Assay [9] has the same target. The assay can be described thus: flow cytometry on activated pan T cells gated CD4+ (donor D43867), anti-hFc APC MFI. The procedure: as §2
For assay [10], the target named is T4, extracellular portion of human CD137 fused to a histidine-containing peptide (human, UniProt Q07011 24-186).
T4 construct: extracellular domain; also called huCD137; His-tagged soluble human CD137
The assay can be described thus: SPR (BIACORE); antibody captured on anti-human Fc; huCD137 25 and 100 nM; 1:1 Langmuir. The procedure: (§3) Thus, an extracellular portion of human CD137 fused to a histidine-containing peptide (“huCD137”) was passed over a surface coated with immobilized antibody. Briefly, each test molecule was captured onto an F(ab)₂ goat-anti-human Fc-coated surface and then incubated in the presence of different concentrations (25 nM and 100 nM) of huCD137. The kinetics of binding were determined via BIACORE® analysis binding (normalized 1:1 Langmuir binding model).

For assay [11], the target named is T4, extracellular portion of human CD137 …. The assay can be described thus: SPR (BIACORE), against chCD137 MAB-4. The procedure:
as §3

Assay [12] has the same target. Put plainly: SPR (BIACORE), against chCD137 MAB-3. The procedure: as §3
For assay [13] the target is unchanged. Put plainly: Attana Cell A200 QCM; antibody captured by anti-human IgG Fc; soluble human CD137-His; grade relative to (1B.3); row with VL12.

These results are taken from patent US20220406376A1 (MacroGenics, published 2022).

T1 sequence (Q07011 24-255, change not shown): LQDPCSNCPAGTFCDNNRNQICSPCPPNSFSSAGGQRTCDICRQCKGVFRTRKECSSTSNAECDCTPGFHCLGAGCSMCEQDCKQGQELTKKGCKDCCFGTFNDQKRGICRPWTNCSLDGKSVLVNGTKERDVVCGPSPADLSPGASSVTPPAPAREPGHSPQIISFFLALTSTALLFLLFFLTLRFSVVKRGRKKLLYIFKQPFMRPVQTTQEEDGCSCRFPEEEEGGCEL

B1: DART-B (bispecific antibody)
chain 1: not shown
chain 2: DIQMTQSPSSLSASVGDRVTITCRPSQDISNYLNWYQQKPDKTVKLLIYYTSRLRSGVPSRFSGSGSGTDFTFTISSLQPEDIATYFCQQGDTLPYTFGQGTKLEIKGGGSGGGGQVQLVQSGAEVKKPGASVKVSCKASGYTFTNYGMNWVRQAPGQGLEWMGWINTNIGEPTYTEEFKGRVTMTRDTSISTAYMELSRLRSDDTAVYYCARDDGYGNRVSYWGQGTLVTVSSGGCGGGKVAACKEKVAALKEKVAALKEKVAALKE
As to B1, the “EC50 (read off the curve)” value in [1] was roughly 0.1 nM; in assay [2] it was roughly 0.03 µg/mL; in [3] it was roughly 0.5 nM; in assay [4], roughly 0.01 µg/mL; in assay [6] it was roughly 0.06 µg/mL; in assay [7] it was roughly 0.02 µg/mL. Also, the Kd in assay [5] worked out at 0.38 nM. Further, in assay [5], the koff is 0.000182 s⁻¹. In assay [5], the kon amounted to 480000 M⁻¹ s⁻¹.

B2: hCD137 MAB-3 (1E.15) (antibody, V domains shown)
VH: QVQLVQSGAEVKKPGASVKVSCKASGYTFTSYWINWVRQAPGQGLEWIGNIYPSDSYTNYNQKFKDKATITADKSTSTAYMELSSLRSEDTAVYYCTRDYGSAYSMSTWGQGTTVTVSS
VL: DIQMTQSPSSLSASVGDRVTITCQASQDISNYLNWYQQKPDKTVKLLIYYTGRARSGVPSRFSGSGSGTDFTFTISSLQPEDIATYFCQQGDTLPYTFGQGTKLEIK
On to B2, for which the concentration for a half-maximal effect (EC50 (read off the curve)) in assay [8] is roughly 0.005 µg/mL; in assay [9], roughly 0.006 µg/mL.

B3: hCD137 MAB-4 (1.1) (antibody, V domains shown)
VH: QVQLVQSGAEVKKPGASVKVSCKASGYTFTSYWINWVRQAPGQGLEWMGNIYPSDSYTNYDQKFKDRVTMTRDTSTSTVYMELSSLRSEDTAVYYCTKSGEYGKIGYYAMDYWGQGTTVTVSS
VL: DIQMTQSPSSLSASVGDRVTITCRASQDISNYLNWYQQKPDKTVKLLIYYTSRLHSGVPSRFSGSGSGTDYTLTISSLQPEDIATYFCQQGNTLPYTFGQGTKLEIK
notes: also called chCD137 MAB-4 (1.1)
In assay [10], B3 had a Kd of 16.2 nM, a koff of 0.0021 s⁻¹ and a kon of 130000 M⁻¹ s⁻¹. For the same molecule, the “fold decrease in binding affinity relative to the murine antibodies” value in assay [11] is roughly 2 fold.

B4: hCD137 MAB-3 (1.1) (antibody, V domains shown)
VH: QVQLVQSGAEVKKPGASVKVSCKASGYTFTSYWINWVKQAPGQGLEWIGNIYPSDSYTNYNQKFKDKATITADKSTSTAYMELSSLRSEDTAVYYCTRDYGSSYSFDYWGQGTTVTVSS
VL: DIQMTQSPSSLSASVGDRVTITCRPSQDISNYLNWYQQKPDGTVKLLIYYTSRLRSGVPSRFSGSGSGTDFTFTISSLQPEDIATYFCQQGDTLPYTFGQGTKLEIK
notes: also called chCD137 MAB-3 (1.1)
In assay [10], B4 displayed a Kd of 46 nM, a koff of 0.031 s⁻¹ and a kon of 670000 M⁻¹ s⁻¹. Moreover, the “fold decrease in binding affinity relative to the murine antibodies” value in assay [12] was roughly 2 fold.

B5: hCD137 MAB-4 (1.2) (antibody, V domains shown)
VH: QVQLVQSGAEVKKPGASVKVSCKASGYTFTSYWINWVRQAPGQGLEWMGNIYPSDSYTNYDQKFKDRVTMTRDTSTSTVYMELSSLRSEDTAVYYCTKSGEYGKIGYYAMDYWGQGTTVTVSS
VL: DIQMTQSPSSLSASVGDRVTITCRASQDISNYLNWYQQKPDKTVKLLIYYTSRLHSGVPSRFSGSGSGTDYTLTISSLQPEDIATYYCQQGNTLPYTFGQGTKLEIK
notes: also called chCD137 MAB-4 (1.2)
In assay [10], B5 registered a Kd of 13.6 nM, a koff of 0.0019 s⁻¹ and a kon of 140000 M⁻¹ s⁻¹. Also, the “fold decrease in binding affinity relative to the murine antibodies” value in [11] was roughly 2 fold.

B6: hCD137 MAB-3 (1.2) (antibody, V domains shown)
VH: QVQLVQSGAEVKKPGASVKVSCKASGYTFTSYWINWVKQAPGQGLEWIGNIYPSDSYTNYNQKFKDKATITADKSTSTAYMELSSLRSEDTAVYYCTRDYGSSYSFDYWGQGTTVTVSS
VL: DIQMTQSPSSLSASVGDRVTITCRPSQDISNYLNWYQQKPGGTVKLLIYYTSRLRSGVPSRFSGSGSGTDFTFTISSLQPEDIATYFCQQGDTLPYTFGQGTKLEIK
notes: also called chCD137 MAB-3 (1.2)
In assay [10], B6 came in with a Kd of 49 nM, a koff of 0.03 s⁻¹ and a kon of 610000 M⁻¹ s⁻¹. Moreover, the “fold decrease in binding affinity relative to the murine antibodies” value in assay [12] was roughly 2 fold.

B7: hCD137 MAB-3 (1.3) (antibody, V domains shown)
VH: QVQLVQSGAEVKKPGASVKVSCKASGYTFTSYWINWVKQAPGQGLEWIGNIYPSDSYTNYNQKFKDKATITADKSTSTAYMELSSLRSEDTAVYYCTRDYGSSYSFDYWGQGTTVTVSS
VL: DIQMTQSPSSLSASVGDRVTITCRPSQDISNYLNWYQQKPDKTVKLLIYYTSRLRSGVPSRFSGSGSGTDFTFTISSLQPEDIATYFCQQGDTLPYTFGQGTKLEIK
notes: also called chCD137 MAB-3 (1.3)
In [10], B7 gave a Kd of 50 nM, a koff of 0.033 s⁻¹ and a kon of 660000 M⁻¹ s⁻¹. For the same molecule, the “fold decrease in binding affinity relative to the murine antibodies” value in assay [12] was roughly 2 fold.

B8: hCD137 MAB-3 VH1B with VL12 (I48A/S52T) (antibody, V domains shown)
VH: QVQLVQSGAEVKKPGASVKVSCKASGYTFTSYWINWVKQAPGQGLEWIGNIYPSDSYTNYNQKFKDKATITADKSTSTAYMELSSLRSEDTAVYYCTRDYGSAYSMSTWGQGTTVTVSS
VL: DIQMTQSPSSLSASVGDRVTITCRPSQDISNYLNWYQQKPDKTVKLLAYYTTRLRSGVPSRFSGSGSGTDFTFTISSLQPEDIATYFCQQGDTLPYTFGQGTKLEIK
As to B8, the binding result in [13] was “binds”.

B9: hCD137 MAB-3 (1G.15) (antibody, V domains shown)
VH: QVQLVQSGAEVKKPGASVKVSCKASGYTFTSYWINWVRQAPGQGLEWAGNIYPSDSYTNYNQKFKDKATITADKSTSTAYMELSSLRSEDTAVYYCTRDYGSAYSMSTWGQGTTVTVSS
VL: DIQMTQSPSSLSASVGDRVTITCQASQDISNYLNWYQQKPDKTVKLLIYYTGRARSGVPSRFSGSGSGTDFTFTISSLQPEDIATYFCQQGDTLPYTFGQGTKLEIK
Regarding B9, the entries for the “EC50 (read off the curve)” value in assay [8] and in assay [9] were roughly 0.008 µg/mL and roughly 0.01 µg/mL, respectively.
